Laboratory results as given in paper PMC5686545.
Values belong to the molecule of their own block, whether it stands above or below them.

Tests used:
[1] = target: microtubules of porcine brain tubulin (pig (endogenous in brain)) (UniProt P02550)
[2] = target: GFP-tagged human cytoplasmic dynein complex (human) (UniProt Q14204); experiment: TIRF microscopy of purified proteins on static GMPCPP microtubules (single-particle colocalisation); 5 nM GFP-dynein, 10 nM pig dynactin, 200 nM BicD2-N, 50 nM mCherry-Lis1; immobilised GMPCPP microtubules; assay buffer AB
[3] = target: GFP-tagged human cytoplasmic dynein complex (human) (UniProt Q14204); experiment: TIRF microscopy of purified proteins on static GMPCPP microtubules (single-particle colocalisation); 5 nM GFP-dynein, 10 nM pig dynactin, 200 nM BicD2-N, 50 nM mCherry-Lis1; immobilised GMPCPP microtubules; HEPES-based buffer (60 mM HEPES pH 7.4, 50 mM K-acetate, 2 mM MgCl2, 10% glycerol, 2 mM ATP)

initiation probability of processive DDB runs within the first 360 nm from the growing microtubule plus end, without EB1 (average 0.05 per 360 nm segment anywhere on the microtubule) [1]: 0.33
Molecule: native dynactin complex from pig brain (from UniProt A0A287B8J2 1-1281; A0A5G2QD80 1-405; F2Z5G5 1-349)

percent of processive DDB particles with Lis1 bound [2]: 9% | percent of processive DDB particles with Lis1 bound [3]: 16%
B1: mCherry-Lis1 (human Lissencephaly-1) (natural protein)
chain: MVLSQRQRDELNRAIADYLRSNGYEEAYSVFKKEAELDVNEELDKKYAGLLEKKWTSVIRLQKKVMELESKLNEAKEEFTSGGPLGQKRDPKEWIPRPPEKYALSGHRSPVTRVIFHPVFSVMVSASEDATIKVWDYETGDFERTLKGHTDSVQDISFDHSGKLLASCSADMTIKLWDFQGFECIRTMHGHDHNVSSVAIMPNGDHIVSASRDKTIKMWEVQTGYCVKTFTGHREWVRMVRPNQDGTLIASCSNDQTVRVWVVATKECKAELREHEHVVECISWAPESSYSSISEATGSETKKSGKPGPFLLSGSRDKTIKMWDVSTGMCLMTLVGHDNWVRGVLFHSGGKFILSCADDKTLRVWDYKNKRCMKTLNAHEHFVTSLDFHKTAPYVVTGSVDQTVKVWECR
